B1: Fipivirus E (nucleic acid)
chain: CTCTTCCGATCTTGGGGGTTCGCCCCCATGTCTCATTTCAACTAGCCGTGTGTCTAGTTAACGCACCGCCTCACCCTGGTCGTTATCGGGTCGGTTCTTGCGACCGTTAGATCGTGAGCGTTTCTGAGGATCAGTTCGTATAAGTTCTCCGGTGTGGCGACCGTAAAATCGTCACGTCCCATGCAATAGATGACGTTAAACTCGTTTGCCAGTTACATAAAGGAATGTTGTTACTTTTAAATTGTCTGTTACATTTAACATCTTGCCAGTATGATGCTACTGTACACTACGGGTGTAGGAACCTTGTAGTGTGACGTATCACTCATATGTGGATGGGTGCTCCAGACCTTTATGGAAGCTCTCAGTTAGTAGTGATCCTTGACTTCATTGAGCCCTGGTAACAGTGGAAGTCAAGATGTATATGTTGCTCAACACACTTCGGTGCTACGAAGCTGTTTGTGGAAGTACTGGCGAGGTTCATTCTGAATCATATGTTTGTCACATAGTCAGGGAGTGCCGTCGCTTACGACGGACCCTTTTTCTTTATAATTACAAATCTGTGTCTCAAGTGTTGTTGGCTGGTTTTCTTCTTCTGTTTTCATTGTTCATATATATACGTCAGAGTGAAAGACTCGGTATATACAAAACTGATCCAGA
modifications: lipid formulation; Fipivirus E
B2: Parechovirus D (nucleic acid)
DNA: ACATGGGGCAGGTGTGCTGTGCCAAGAGCAACACTACGGTGGCCGAGCCGATGGTTCGTCACCACGTAGTAGGACTCCGTAGTGCTTGGTTACGGCGGACGTAAGTCAGTTGAGTGATGTCTAAGTGGCAAACCATGAGTACATGGTAACCTTGTGTGGACTCGCGGGACGGAATTTCCTATCCCATTGACTCCTTGTAGCAAGGTGGGTATACCCAACCACAATGGCAGCACCCTGGGTGGGAACCCAGGGGCCTGGATTAGTATCCAGTCACACAGCCTGATAGGGTGGCGGCTCAGCCACTGACCAGCGTCTCTAAATAATTGTGAGCTGTTCATGCACC
modifications: lipid formulation; Parechovirus D
B3: Orivirus (nucleic acid, listed as Orivirus sp.)
DNA: GGTCCCAGGCCAATATTCTTCGTAAGGCTTGGTTCCAATTTTCCACCACTCGTGTTTGGGTTCTGGCCTATGGTACCCAGAGGGGCGGTTTGGGGGAATTAACTCCCCCTCCCCTGTGGTCCTATACCACCCCACACCTCTGTGGGCTTTCTTTACTATCTTCTTGTTTTCCGACTTTTAAACACTAGGCAGGCGCGCCTAGTCATACACCGCCCGGCTGGTCTTTCCAGCTCTTGTGGGCGGTGCGCGCTGGTCCATCGTGCCCAGCGACATAGCACCTTGTGGACACCTCCGAACGCCCTCCCCTGTATGGGGTGGTGCCCAGGGGTTTCAGTGTGGTGACACACTCCCTGGGGCCCGAAAGGCTAGTGTGCAACAGGTGAGGTACAGCCAGCTGCCCCCGTGGCTGGAGGGACCAAGCTTGTGAAGCACACCTCACCTTCTTGGGGGTGGGCTAGTAAGTGGTGAAAGCATAGTGTCCGTGTCGCTGGCCAACACTTTGGGTCAAGTCCAGCCACTCAGTGAGTAGATGCCCAGGAGGTACCCCTAGTGGATCTGACTTGGGGCCTGTTACTTAATGCAGGTTAAAAACTATGAAAGCTGAGTAGTGTAGCCCGGCTGGTGGCTTCTCTTCCTTATTCATTCTATTTTATGGTGACAAACGCAACTGAAGCC
modifications: lipid formulation
B4: Fipivirus C (nucleic acid)
chain: CGCGGTTAAACCCGCGCAACCTTCTTTCAGCCGCGTCTGAGTAGCGCGGTTAGTCCTGATACACAGTTTCCTGTTGGGTACTGTGTCTTCGGGTGAATGCTCTTGTGTGAATGTTTTAGGCTGTTTAAGGGAAGCGTTTCCCCGTGCGCTGTGAGGGTTTCTCACGCTCTTTCGGGGTGCAGTCTCTTCTGTTGTTCATTAAGATGTATGGATGCACTGTTGTGAAGGATTTGTGAACTGGGGATCGACACCCCGTGAGGGGTGCCCCAGTGTCCATAGGAGTTTGCTGGAGAGGTGTGTTGCTGTAGTGACTATCCGTGACCTGGCATTCTAAGGTGTTGACCCCAACCTGTGAGGGTCTGGATCGCAGTGTTGAAGTGCTTTGGAGGGTTCAATGGGGTTTCTGTAGTGGATATTATGTGCTTGACGACTACTGGTACGAGTGTATTGGGGGTCTACATGTGTGA
modifications: lipid formulation; Fipivirus C
B5: Limnipivirus C (nucleic acid)
DNA: GTTTCTGAGCACTGGTAAGAGCTTAGACAAACGTTTTTAAAATTTATTTTCTCTGCAACTTTTGTTTGTGTTTATTTTTATTTGTTAATTTTGCGCCTAAGCATTTGTTGCGAAGTATTTGATTCATTAGTAATATTACTTATTGTTTATTTAGATGGTATTCAAAGTGGTGGGAGTATCGAACCCAAGCGTCGTATGCTATCTCCTTGAACAATTTTTAATCATTGCGAAGTGATCATTGAAAAGGATAGGTGTTTAAGAACTCAAAGAGTGTTAATAATGTTGGGTGACAGGTGTCCCCATAGAATTTATTAACATGATTTGGACTGGTTATCTAGTAAGAAGAACCATCGAACGCACGAGCGAGCATTGCTTGCGGGGCAGTTACCCTGCGTCGATGTAAGTGTGTACCGGGGGGTGCACATGTTGATTCTTTATGGCCTGATAGGGTGCGTCATTCGCGCCTAGATAATTAGTATAATGCGAATGGAATAAATTTAC
modifications: lipid formulation; Limnipivirus C
B6: Fipivirus A (nucleic acid)
chain: TGCGGGTAAACTCCCGCATGTGTGAATGAGGCGATGTCCCAGGAACTAACTGCCGATCCTGGTTTTAACTACGATCCGTATTTGTTACTAATGCGATATCCCCCCATTGTTTGCCTCCATGTTGTTTTCAACGCTTTTGGCCTTGAGTGTTATCAAGTGTTTTAGCGACATAGTGGGAAGCTACGGCTGCGTCCCCATTTTTGAGTGGCGACCCAGTTTTAGTGGCCACTCTGTCCCTGAACTGCGCTATAATGTGAATTTATGTTCACAAAAACGGACTGATGTAACTGTTAATGACTAAGGAATAGTACCTCACTGAAGTATCAAGACCCCGTTCGAGCGGTGTACATATATGGATGGAAACCTTGTCTGAGTCATCTCGAATACTAATCAATGAGGGATGTCGAGTAAGCATATCATGAACCACATAGAATAGTGGGGTTTCGGGGTTAGAGGCTCTCTGCAGCAATGTATCTCTAACACCATGGCCGAAATGAGAGATAGAGACCACGATGTTTGTGTGTAAGTAATGATGTGTGGAAAGAAAATTCTGAATGTTGGTATGATATCAGTCTAAGGGGAGTGGCTCACCTAAGAGCTACCCAAACATTTCACAGCAGACAACATAACGTACTGAGAGTAGTTGGAAGGTTCCAGAAATCAGT
modifications: lipid formulation; Fipivirus A
B7: HAV HM175 (nucleic acid)
chain: CGCCGTTTGCCTAGGCTATAGGCTAAATTTTCCCTTTCCCTTTTCCCTTTCCTATTCCCTTTGTTTTGCTTGTAAATATTGATTTGTAAATATTGATTCCTGCAGGTTCAGGGTTCTTAAATCTGTTTCTCTATAAGAACACTCATTTCACGCTTTCTGTCTTCTTTCTTCCAGGGCTCTCCCCTTGCCCTAGGCTCTGGCCGTTGCGCCCGGCGGGGTCAACTCCATGATTAGCATGGAGCTGTAGGAGTCTAAATTGGGGACACAGATGTTTGGAACGTCACCTTGCAGTGTTAACTTGGCTTTCATGAATCTCTTTGATCTTCCACAAGGGGTAGGCTACGGGTGAAACCTCTTAGGCTAATACTTCTATGAAGAGATGCCTTGGATAGGGTAACAGCGGCGGATATTGGTGAGTTGTTAAGACAAAAACCATTCAACGCCGGAGGACTGACTCTCATCCAGTGGATGCATTGAGTGGATTGACTGTCGGGGCTGTCTTTAGGCTTAATTCCAGACCTCTCTGTGCTTGGGGCAAACATCATTTGGCCTTAAATGGGATTCTGTGAGAGGGGATCCCTCCATTGCCAGCTGGACTGTTCTTTGGGGCCTTATGTGGTGTTTGCCGCTGAGGTACTCAGGGGCATTTAGGTTTTTCCTCATTCTTAAATAATA
modifications: lipid formulation; Hepatovirus A
B8: Parechovirus C (nucleic acid)
DNA: CGGTCATCCCCCTTTCCCCACAGCCGGTGTGGGTTCTAATCGGCTCCTACTAAACACCTAAGCATCACTGCGCCTCTATCTCTCCTATCCACAGGTCTAAGACGCTTGGAATAAGACATGTGGGTGCAATAGGAAGATTAGCTAGTCCAATCTCTCCTTCCAGCTACGCTTCTCCCTTCGATGAGCGTAGGGGGGGCCCCCACCTCCCTCATCTCTGGATAGGGCTCTTGCTACGGGGCTTTCCCGTCTGGACCAGCAGGCCCACTGGTGCGCTTCCATTCAAGTTTAGTGTGCATTACTGTCTGAAATATTGCTTTGCTAGGATCTAGTGTAGCGACCTGCATATTGCCAGCGGACTTCCCCACATGGTAACATGTGCCTCTGGGCCCAAAAGGCATGTCTTTGACCGTATGCAGTACAACCCCAGTATAGGTCCTTTCTATGGCAGTATGGATCTCAGTGATGAGTCTATACAGAATATGGAAGTGGTTCGGATATGTCAGCCCGAAGGATGCCCAGAAGGTACCCGCAGATAACCTTAAGAGACTGTGGATCTGATCTGGGGCCCACCACCTTCGGGTGGGTAGAAGCTAACCATGCCTTGGGTTAAAAAACGTCTAAGGGCTGACCAGACCCGGGGGATCCGGGTTTTCCCTATCTTGACCTACTCTAATC
modifications: lipid formulation; Parechovirus C
B9: HAV FH1 (nucleic acid)
chain: CTTGATACCTCACCGCCGTTTGCCTAGGCTATAGGCTAAATTTCCCTTTCCCTGTCCTTTCCCTATTTCCTTTTGTTTTGTTTGTAAATATTAATTCCTGCAGGTTCAGGGTTCTTTAATCTGTTTCTCTATAAGAACACTCAATTTTCACGCTTTCTGTCTCCTTTCTTCCAGGGCTCTCCCCTTGCCCTAGGCTCTGGCCGTTGCGCCCGGCGGGGTCAACTCCATGATTAGCATGGAGCTGTAGGAGTCTAAATTGGGGACGCAGATGTTTGGGACGTCGCCTTGCAGTGTTAACTTGGCTTTCATGAACCTCTTTGATCTTCCACAAGGGGTAGGCTACGGGTGAAACCTCTTAGGCTAATACTTCTATGAAGAGATGCCTTGGATAGGGTAACAGCGGCGGATATTGGTGAGTTGTTAAGACAAAAACCATTCAACGCCGAAGGACTGGCTCTCATCCAGTGGATGCATTGAGGGAATTGATTGTCAGGGCTGTCTCTAGGTTTAATCTCAGACCTCTCTGTGCTTAGGGCAAACACTATTTGGCCTTAAATGGGATCCTGTGAGAGGGGGTCCCTCCATTGACAGCTGGACTGTTCTTTGGGGCCTTATGTGGTGTTTGCCTCTGAGGTACTCAGGGGCATTTAGGTTTTTCCTCATTCTTAAACAATA
modifications: lipid formulation; Hepatovirus A

The subject of the series is HEK293 cells. The class given is cell-based, human. Conditions: circular RNA encoding Gluc with the listed IRES (UTR truncated to 675 nt) transfected into HEK293 cells; supernatant after 24 hours.
In the case of B1, the “Expression (luminescence from secreted Gluc protein)” value (“Expression” below) was determined as 1.10E+05. As for B2, the figure is 3.10E+05; as for B3, 6.09E+05; as for B4, 1.09E+05. As for B5, the figure is 1.35E+05; as for B6, 2.69E+05; as for B7, 4.96E+05. For B8, the “Expression” value is given as 1.24E+06. Turning to B9, the “Expression” value is recorded as 1.24E+05.
